± gives the half width of the 95% confidence interval.
Experiments:
[1] = folding stability dG unfold from trypsin proteolysis; higher = more stable
Method in brief: (§1)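 Sequencing followed digestion of designed mini-proteins with trypsin and chymotrypsin, each at 11 concentrations in threefold dilutions together with a no-protease condition. The mini-proteins were under 80 residues, had no cysteine, sat in a PA-tagged cDNA display construct, and were kept only if AlphaFold2 dimer inter-PAE was above 15. From the counts, Bayesian fitting gave K50, and unfolding free energy was derived against a sequence-predicted unfolded-state K50 and a shared folded-state K50, per protease or combined.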

[2] = folding stability dG unfold from chymotrypsin proteolysis; higher = more stable
Method in brief: as §1

[3] = folding stability dG unfold (combined trypsin and chymotrypsin); higher = more stable
Method in brief: as §1

Sequence	folding stability dG unfold [1]	folding stability dG unfold [2]	folding stability dG unfold [3]
SAGGSAGGSAGGMMKITIEVDGKKIEITLPPGAELKFDKEKKEIYIRNKKTNEILKLKIKSAGGSAGGSAGG [r7_7_TrROS_Hall]	1.9 ± 0.048 kcal/mol	2.35 ± 0.041 kcal/mol	2.21 ± 0.11 kcal/mol
SAGGSWTIDIDPEKVKEVEHKRNPNGMNEHRLELPNKNGKKREVKIPMGMKSPEDALDEIRELLGKSAGGSA [r2_347_TrROS]	0.167 ± 0.25 kcal/mol	0.663 ± 0.32 kcal/mol	0.331 ± 0.39 kcal/mol
SAGGSAGGMTIEVTFPDGTKLTITLENDGPDTLLATAEVEAPRAGGPSIPKEVAAKLAEELLASSAGGSAGG [r6_234_TrMRF]	1.19 ± 0.061 kcal/mol	1.62 ± 0.081 kcal/mol	1.36 ± 0.12 kcal/mol
SAGGSAGGSAGGGMSVKVTVKDPVNGTTSVYELSVPPGVSNVVINVKTPDNSTVTKVTLESAGGSAGGSAGG [r7_687_JUSTAS]	0.754 ± 0.09 kcal/mol	1.28 ± 0.034 kcal/mol	1.11 ± 0.11 kcal/mol
SAGGSAGGSAGMVIEVGGKKVTIEKNEDGSLKITVTDKNGKKKEITIPGMSLEEILKALKSAGGSAGGSAGG [r11_934_TrROS_Hall]	3.23 ± 0.076 kcal/mol	2.57 ± 0.036 kcal/mol	2.9 ± 0.081 kcal/mol
SAGGWYIRIKEIERNNDGVNIDIQIPDPDDPEFFENIAENLAQKLGMPKENIKIRIEPTPMPPDPEEPSAGG [r13_430_TrROS]	0.248 ± 0.13 kcal/mol	0.0789 ± 0.35 kcal/mol	0.247 ± 0.23 kcal/mol
SAGGSAGGITIRDPDNGIEVKILKITPNHMIIQAEFPNGRNYMIEMPPDSLKPGDEIPMTVHPVSAGGSAGG [r6_152_TrROS]	-0.008 ± 0.17 kcal/mol	-0.14 ± 0.41 kcal/mol	-0.148 ± 0.3 kcal/mol
SAGGSERTIMIPVEPGMSPEQIADEIKAILRELGPGRPIEIDDVHPGGWVKIKINNKPIKIHIMWPSAGGSA [r2_102_TrROS]	1.31 ± 0.038 kcal/mol	1.3 ± 0.081 kcal/mol	1.32 ± 0.1 kcal/mol
SAGGMIELTIVVKTKEEAEKAAEELARKLAEELGVEVTVTSVEVEEVEDPETGETYLVVRVRIEVKPSAGGS [r8_171_TrROS_Hall]	4.75 ± 0.27 kcal/mol	4.12 ± 0.11 kcal/mol	4.53 ± 0.23 kcal/mol
SAMKIKIKVIGVLKPENHALIFLELDDSIPPEIPVVIRIKNENGEILEIPIEGNRALLVVDDRKIEILTSAG [r14_350_TrMRF]	1.82 ± 0.08 kcal/mol	1.67 ± 0.072 kcal/mol	1.73 ± 0.12 kcal/mol
SAGGSAGGSWIWVIKIENPEKGREYTFFIPGPLEDIKDHIREWNPDPDVKVEIQRIPVSPEAFSAGGSAGGS [r12_92_TrROS]	1.68 ± 0.054 kcal/mol	2.11 ± 0.096 kcal/mol	1.89 ± 0.094 kcal/mol
SAGGSAGGSANIDIKVEENPGNGYRKVEVTMTVDDLRELFGNEPIPPGEERQIKMTIYLPIPSAGGSAGGSA [r18_327_TrROS]	0.772 ± 0.13 kcal/mol	1.37 ± 0.095 kcal/mol	1.21 ± 0.17 kcal/mol
GMPYTVDVVIEEAEDGVIIPIKLSVDGALVAEAVAPVDPVTKKVVIKPGAASKEALDVALEKLKELGIEPGS [r1_455_TrMRF]	-0.487 ± 0.4 kcal/mol	0.537 ± 0.17 kcal/mol	0.162 ± 0.26 kcal/mol
SAGGSAGGSAVVSVSPDGYLRLAYYPETGELRELPPDVSVEEFLEAFPDVVVLAAPVAPTPESAGGSAGGSA [r18_53_TrMRF]	0.961 ± 0.016 kcal/mol	1.65 ± 0.029 kcal/mol	1.41 ± 0.048 kcal/mol
SAGGSAGGSMSKPVKITTTRDPNSNVITIQVESEEDVIEFAKKKGINIKIEPTSENTYKLTLESAGGSAGGS [r12_810_JUSTAS]	0.0305 ± 0.079 kcal/mol	-0.0494 ± 0.36 kcal/mol	0.113 ± 0.21 kcal/mol
SMKIVEVEVFEDPETGKLVVIVKLDGEEVVEVEEGEKVEIEVEPGDTLLVFVVDAETGEIKEEKEIKVEESA [r9_209_TrROS_Hall]	0.541 ± 0.12 kcal/mol	1.2 ± 0.12 kcal/mol	1.11 ± 0.16 kcal/mol
SAGGSAGGSAKAKIKKVEVEKEGDKLRVTAEIELEDGYVLKVSFEFKDDEIKMEIEIVPLKDSAGGSAGGSA [r18_79_TrROS_Hall]	3.02 ± 0.32 kcal/mol	3.38 ± 0.29 kcal/mol	3.22 ± 0.48 kcal/mol
SAGGSAGGKVRVITVKPGETITVEGLPPGAVLITLPDGSVKEFPAGATIKVPPSAEIVVVEKEDSAGGSAGG [r6_866_TrROS_Hall]	0.486 ± 0.022 kcal/mol	0.885 ± 0.04 kcal/mol	0.778 ± 0.1 kcal/mol
SAGGSAKIEITIFIPGMSEEEVKKLAEELAEELRKKGLSDEEIKEIKIKVYKVPVYKTEDGKLVKVSAGGSA [r15_684_TrROS_Hall]	0.884 ± 0.046 kcal/mol	1.82 ± 0.059 kcal/mol	1.44 ± 0.089 kcal/mol
SAGGSASLQTSTASVSPGALEKAIEAAKAAPPGTAVSVSFGDPVVGTPRPVTLTVDSAGNLVEITGSAGGSA [r15_228_JUSTAS]	0.376 ± 0.029 kcal/mol	0.0446 ± 0.08 kcal/mol	0.188 ± 0.097 kcal/mol
SAGGKKKAKAYIVEKTTEKEGLKYYKVLIELGGKPLVFVIKSTSLEEVEEAIKKLAEELGVEVEIVPGSAGG [r13_750_TrMRF]	3.77 ± 0.1 kcal/mol	4.69 ± 0.089 kcal/mol	4.53 ± 0.08 kcal/mol

Sequence	folding stability dG unfold [1]	folding stability dG unfold [2]	folding stability dG unfold [3]
SAGGSAEVVEREEYFEEKLPNGEKVKVRRIVTEITPIPGLPGYRVEYTVTVEIGDEWETYPLEVAESAGGSA [r15_465_JUSTAS]	1.53 ± 0.08 kcal/mol	1.51 ± 0.026 kcal/mol	1.61 ± 0.064 kcal/mol
SAGGSAGGSAGRRIVFQFPLGMPIDEIADELADNGYEVEINWEPDPNGWMTFVIEITPPDSAGGSAGGSAGG [r11_1050_TrROS]	1.45 ± 0.016 kcal/mol	2.31 ± 0.097 kcal/mol	1.97 ± 0.11 kcal/mol
SAGGSAGGSAGGSKNKKIKLGPEVKIKVKIEAKLEGGYSSENGLPEFKLDVKLEIGEVESAGGSAGGSAGGS [r10_877_TrMRF]	0.727 ± 0.068 kcal/mol	1.09 ± 0.13 kcal/mol	0.94 ± 0.26 kcal/mol
SAGGMIRIERDGDRLTIEIHLPEGEELTPEQLEELARALLEELGPDARVVRVERLEDGTVRIEVELPSAGGS [r8_103_TrROS_Hall]	3.32 ± 0.14 kcal/mol	2.35 ± 0.07 kcal/mol	2.88 ± 0.13 kcal/mol
SAGARIVPIKINLKWNPDNGQLEVPIEMYVNNHPVEMEARFDPEDPGKIEFEITYPGNGQEIRASIPLPSAG [r14_178_TrROS]	0.951 ± 0.098 kcal/mol	-0.0473 ± 0.31 kcal/mol	0.467 ± 0.26 kcal/mol
SAMVEVSTLPDGTTRVTITGKDPAAFEKELAELIEKIKKEGINATITKTREEPIPEEPELYRAELEIIVSAG [r14_119_JUSTAS]	1.54 ± 0.062 kcal/mol	1.48 ± 0.055 kcal/mol	1.54 ± 0.25 kcal/mol
SAGKPKKKKRTITIPIEHNPNNGNFTIKIRWPGRPVTVPFPGDDPEEMLDNMLNELENRLGWPIDEVEISAG [r5_251_TrROS]	0.932 ± 0.069 kcal/mol	-0.116 ± 0.27 kcal/mol	0.429 ± 0.23 kcal/mol
SAGGSAGGSAGSPMSAEEVEERLREELRRELGPDYTVTVTVTEVLPEGVYVVSVTVTGPASAGGSAGGSAGG [r11_153_JUSTAS]	2.49 ± 0.14 kcal/mol	1.96 ± 0.028 kcal/mol	2.21 ± 0.099 kcal/mol
SAGGSAGGSAGGSGSITITYSSDGDKYSATFTVPDGTVVTVPNMSVDEAKKVAEKFLKSSAGGSAGGSAGGS [r4_383_JUSTAS]	-0.389 ± 0.14 kcal/mol	1.08 ± 0.12 kcal/mol	0.659 ± 0.095 kcal/mol
SAGGSAGGSAGNPPNKPKPIIKVVPFRYRFYIPETGSVIEIDIYVFEDDTVKIKIKTYPLSAGGSAGGSAGG [r11_883_TrMRF]	3.73 ± 0.28 kcal/mol	5.38 ± 0.2 kcal/mol	5.03 ± 0.22 kcal/mol
SATLTFTATLPDGSRVLEVTAEPRPDGTVTIRMRAEFTFAPGVTVTVPATITVPVPPPPALPPDDPRLFSAG [r14_95_TrMRF]	2.73 ± 0.057 kcal/mol	3.33 ± 0.05 kcal/mol	3.09 ± 0.086 kcal/mol
SEKPPKVKIVSVEYNPETGTVTITVEVEPGQKVRIFVRNSDGSVQEIDLESKTITINLPPGAEIVRIEVLSA [r9_113_TrROS_Hall]	3.9 ± 0.23 kcal/mol	4.16 ± 0.12 kcal/mol	4.09 ± 0.14 kcal/mol
SAGGSAGGSAGGSMSTVFVSTLTLPDPSGLSTVLTTTVEIDPEGNAHPVTSTEEVSAAASAGGSAGGSAGGS [r4_80_JUSTAS]	0.716 ± 0.022 kcal/mol	0.33 ± 0.089 kcal/mol	0.652 ± 0.079 kcal/mol
SAGGSAGGMLEIEFEKPLPNGETLKIKVFFDKDKPEALVEIENPSTNEKKFYNFTSIDEVIEKESAGGSAGG [r6_464_TrMRF]	1.03 ± 0.048 kcal/mol	1.7 ± 0.2 kcal/mol	1.49 ± 0.24 kcal/mol
SAGGSAGGSAGMPKRKITKIETEELPPELIRVTITLPDGTPVPVVVSPDDEEVKAIIEKLSAGGSAGGSAGG [r11_122_JUSTAS]	-0.0513 ± 0.3 kcal/mol	0.113 ± 0.13 kcal/mol	0.311 ± 0.24 kcal/mol
SAGGSAETAIDLGPPNTTGVLEIEYFDENGNTRRATATFDPNPATISFNEPVEIPPNARIEIKPTSSAGGSA [r15_198_TrMRF]	-0.405 ± 0.21 kcal/mol	0.857 ± 0.064 kcal/mol	0.545 ± 0.14 kcal/mol
SAGGKIKIQFNGQEFTITEFEIIEPQPNKGGGPYYRIRIKFPNGPMEIMIPPNMPPEIKPGDTFTIASAGGS [r16_638_TrROS]	1.797 ± 0.015 kcal/mol	1.96 ± 0.032 kcal/mol	1.93 ± 0.066 kcal/mol
SAGGSAGGSAGGTPIAETEVSEDPATGKLITTSKSPTDPKVYVTTTDLATGVPTTTPLLSAGGSAGGSAGGS [r10_1034_JUSTAS]	0.761 ± 0.031 kcal/mol	0.213 ± 0.047 kcal/mol	0.524 ± 0.064 kcal/mol
SAGGSSKLTFKDPNSDGTYSVTYDPSTGKANVTTSNGSSATISFEGDTITLLESSSVPPSPSNPTTSSAGGS [r16_687_JUSTAS]	0.123 ± 0.047 kcal/mol	0.252 ± 0.093 kcal/mol	0.243 ± 0.09 kcal/mol
SAGGSAGGSAEPVRLVVVTPGFPDGPPIPVEELEALLEAEDVTVVDPFTIPELGYVVLLVEASAGGSAGGSA [r18_466_TrMRF]	1.4 ± 0.048 kcal/mol	0.728 ± 0.092 kcal/mol	1.07 ± 0.1 kcal/mol
SAGGSAGGSAGGKRYRVTELEVVEVDGEKRLLVRFEDGRTQAFPAGAKISPDGAEIELLPSAGGSAGGSAGG [r7_931_TrROS_Hall]	0.469 ± 0.042 kcal/mol	1.44 ± 0.033 kcal/mol	1.14 ± 0.04 kcal/mol
